According to the supplement of paper PMC7125110:
± gives the standard error. Fewer inactive variants are shown than the library holds.

B1: glmS ribozyme (parent)
chain: AUAAAAGCGCCAGAACUACAGAAAUGUAGUUGACGAGGAGGAGGUUUAUCGAAUUUUCGGCGGAUGCCUCCAAA

How the values were obtained:
Details in all cases: with glucosamine-6-phosphate
glucosamine-6-phosphate [1] = variants of: B1; experiment: self-cleavage kobs at 40 uM GlcN6P; higher = faster cleavage; RNA array
Method in brief: (§1)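 In situ transcription by E. coli RNA polymerase produced barcoded ribozyme variants on sequenced MiSeq chips, and a hybridised Cy3 probe tracked them at 37 °C. Glucosamine-6-phosphate was flowed in at 40 μM to 10 mM in HEPES/KCl/Mg(OAc)2 buffer. kcat and KM were taken from weighted Michaelis–Menten fits of kobs values from exponential decay fits.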

glucosamine-6-phosphate [2] = variants of: B1; experiment: self-cleavage kobs at 640 uM GlcN6P; higher = faster cleavage; RNA array
Method in brief: as §1

glucosamine-6-phosphate [3] = variants of: B1; experiment: self-cleavage kobs at 2500 uM GlcN6P; higher = faster cleavage; RNA array
Method in brief: as §1

glucosamine-6-phosphate [4] = variants of: B1; experiment: self-cleavage kobs at 10000 uM GlcN6P; higher = faster cleavage; RNA array
Method in brief: as §1

glucosamine-6-phosphate [5] = variants of: B1; experiment: self-cleavage kobs at 160 uM GlcN6P; higher = faster cleavage; RNA array
Method in brief: as §1

| Variant | self-cleavage kobs at 40 uM GlcN6P (glucosamine-6-phosphate [1]) [s⁻¹] | self-cleavage kobs at 640 uM GlcN6P (glucosamine-6-phosphate [2]) [s⁻¹] | self-cleavage kobs at 2500 uM GlcN6P (glucosamine-6-phosphate [3]) [s⁻¹] | self-cleavage kobs at 10000 uM GlcN6P (glucosamine-6-phosphate [4]) [s⁻¹] | self-cleavage kobs at 160 uM GlcN6P (glucosamine-6-phosphate [5]) [s⁻¹] |
| --- | --- | --- | --- | --- | --- |
| AUAAAAGCGCCAUAACUACAGAAAUGUAGUCGACGAGGAGGAGGUUUAUCGAAUUUUCGGCGGUUGCCUCCAAA [G13U U31C A64U] | < 1e-05 | – | – | – | – |
| AUAAAAGCGCCAGCACUACAGAAAUGUAGUUGACGAGGAGGCGGUUUAUCGAAUUUUCGGCGGAUGCCUCCAAA [A14C A42C] | < 1e-05 | < 1e-05 | < 1e-05 | – | – |
| AUAAAAGCGCCAGCACUACAGAAAUGUAGUUGAGGAGGAUGAGGUUUAUCGAAUUUUCGGCGGAUGCCUCCAAA [A14C C34G G40U] | < 1e-05 | – | < 1e-05 | – | – |
| AUAAAAGCGCCAGCACUACAGAAAUGUAGUUGACGAGGAGGAGGUUUAUCGAAUUUUCGGCGGGAGCCUAGAAA [A14C A64G U65A C70A C71G] | < 1e-05 | – | – | < 1e-05 | – |
| AUAAAAGCGCCAGCCCUACAGAAAUGUAGUUGACGAGGAGGAGGUUUAUCGAAUUUUCGGCUCAUGCCUCCAAA [A14C A15C G62U G63C] | < 1e-05 | – | – | – | – |
| AUAAAAGCGCCAGCUCUACAGAAAUGUAGUUGACGAGGAGGAGGUUUAUCGAAUUGUCGGCGGAUGCCUCCAAA [A14C A15U U56G] | 0.000225 ± 6.3e-05 | 0.00145 ± 0.00027 | 0.00238 ± 0.00057 | 0.00809 ± 0.0027 | – |
| AUAAAAGCGCCAGCACUACAGAAAUGUAGUUGACGGGGAGGAGGUUUUUCGAAUUUUCAGCGGAUGCCUCCAAA [A14C A36G A48U G59A] | < 1e-05 | < 1e-05 | < 1e-05 | < 1e-05 | – |
| AUAAAAGCGCCAUAACUACAGAAAUGUAGUUGACGAGGAGGAGGCUUAUCGAAUUUUCGGCGGAUGCCUCCAAA [G13U U45C] | < 1e-05 | – | – | 6.21e-05 ± 1.4e-05 | < 1e-05 |
| AUAAAAGCGCCAUAACUACAGAAAUGUAGUUGACGAGGAGGAGGUUUAACGAAUUUUAGGCGGAUGCUUUCAAA [G13U U49A C58A C68U C70U] | < 1e-05 | – | – | – | – |
| AUAAAAGCGCCAGCACUACAGAAAUGUAGUUGACGAGGAGGAGGUUUAUCGCAUUUUCGGCGGAUGCCUCCAAA [A14C A52C] | < 1e-05 | < 1e-05 | – | < 1e-05 | < 1e-05 |
| AUAAAAGCGCCAGCUCUACAGAAAUGUAGUUGACGAGGAGGAGGUUCAUCGAAUUUUCGGCGGAUGCCUCCAAA [A14C A15U U47C] | < 1e-05 | – | – | – | – |
| AUAAAAGCGCCAGCACUACAGAAAUGUAGUUAACGAGGAGGAGGUUUAUCGUAUUUUCGGCGGAUGCCUCCAAA [A14C G32A A52U] | < 1e-05 | – | 5.9e-05 ± 2.1e-05 | 9.78e-05 ± 1.9e-05 | – |
| AUAAAAGCGCCAGCACUACAGAAAUGUAGUUGACGAGGAGGAGGUUUAUCGAAUUUUCGGCGGAUGUCUUCAAA [A14C C67U C70U] | < 1e-05 | – | – | 6.08e-05 ± 1.4e-05 | – |
| AUAAAAGCGCCAGCACUACAGAAAUGUAGUUGACGAGGAGGAGGUUUAUGGAAUUUUCGGCGGGUGCCUCCAAA [A14C C50G A64G] | 4.29e-05 ± 2.1e-05 | – | – | – | – |
| AUAAAAGCGCCAGCAGUACAGAAAUGUAGUUGACGAGGAGGAGGUUUAUGGAAUUUUCGGCGGAUGCCUCCAAA [A14C C16G C50G] | 8.94e-05 ± 3.4e-05 | – | – | – | – |
| AUAAAAGCGCCAUAACUACAGAAAUGUAGUUGACGAGGAGGAGGUUUAUCGAAUUUUCGGCAGAUGCCUCCAAA [G13U G62A] | < 1e-05 | – | < 1e-05 | < 1e-05 | – |
| AUAAAAGCGCCAUAACUACAGAAAUGUAGUUGACGAGGAGGAGGUUUAUCGAAUUUGCGGCGGAUGCCUCCAAA [G13U U57G] | < 1e-05 | – | – | – | – |
